Laboratory results as given in patent publication US20140348865A1, “[…] ON AN HIV-1 V1V2 SITE-OF-VULNERABILITY” (The United States of America, as represented by the …, priority 2011, published 2014).

What was measured:
[1] = target: CNE5
[2] = target: MS208.A1
[3] = target: M02138
[4] = target: 3301_V1_C24
[5] = target: UG037.8
[6] = target: Env of HIV-1 strain 398 (pseudovirus) (HIV-1)
[7] = target: 620345.c1
[8] = target: R1166.c1
[9] = target: C3347.c11
[10] = target: 0815_V3_C3
[11] = target: Q168.a2
[12] = target: KER2018.11
[13] = target: Q259.17
[14] = target: Q461.e2
[15] = target: CNE3
[16] = target: Q769.h5
[17] = target: C4118.09
[18] = target: 0260.v5.c36
[19] = target: Q23.17
[20] = target: Env of HIV-1 strain 0439 (pseudovirus) (HIV-1)
[21] = target: R3265.c6
[22] = target: 3589_V1_C4
[23] = target: 6095_V1_C10
[24] = target: Env of HIV-1 strain CNE56 (pseudovirus) (HIV-1)
[25] = target: CNE59
[26] = target: 3718.v3.c11
[27] = target: MB201.A1
[28] = target: 6540.v4.c1
[29] = target: C1080.c3
[30] = target: KER2008.12
[31] = target: TH966.8
[32] = target: CH038.12
[33] = target: CNE53
[34] = target: DU156.12
[35] = target: CH070.1
[36] = target: CNE15
[37] = target: MW965.26
[38] = target: CNE58
[39] = target: SO18.18
[40] = target: CAP210.E8
[41] = target: TZA125.17
[42] = target: Env of HIV-1 strain 6631 (pseudovirus) (HIV-1)
[43] = target: 6644.V2.C33
[44] = target: DU172.17
[45] = target: CAP244.D3
[46] = target: ZA012.29
[47] = target: TZBD.02
[48] = target: BR025.9
[49] = target: CH117.4
[50] = target: DU123.06
[51] = target: CH181.12
[52] = target: 6785.V5.C14
[53] = target: CNE7
[54] = target: Env of HIV-1 strain ZM135 (pseudovirus) (HIV-1)
[55] = target: Env of HIV-1 strain CNE30 (pseudovirus) (HIV-1)
[56] = target: CNE31
[57] = target: DU422.01
[58] = target: DU151.02
[59] = target: Env of HIV-1 strain 6471 (pseudovirus) (HIV-1)
[60] = target: CAP45.G3
[61] = target: 3637.V5.C3
[62] = target: CNE40
[63] = target: 3168.V4.C10
[64] = target: ZM146.7
[65] = target: 0077_V1.C16
[66] = target: CNE57
[67] = target: TV1.29
[68] = target: Env of HIV-1 strain 6322 (pseudovirus) (HIV-1)
[69] = target: ZM106.9
[70] = target: Env of HIV-1 strain 3873 (pseudovirus) (HIV-1)
[71] = target: ZM109.4
[72] = target: epitope-scaffold 2ZJR_B; assay: ELISA, antibody dilution series on the scaffold

Substance: monoclonal antibody PG16
- neutralization IC50 [1]: < 0.023 µg/mL
- neutralization IC50 [2]: 0.047 µg/mL
- neutralization IC50 [3]: 0.022 µg/mL
- neutralization IC50 [4]: < 0.023 µg/mL
- neutralization IC50 [5]: 0.001 µg/mL
- neutralization IC50 [6]: > 50 µg/mL
- neutralization IC50 [7]: > 50 µg/mL
- neutralization IC50 [8]: 0.587 µg/mL
- neutralization IC50 [9]: 0.006 µg/mL
- neutralization IC50 [10]: > 50 µg/mL
- neutralization IC50 [11]: 0.031 µg/mL
- neutralization IC50 [12]: < 0.0006 µg/mL
- neutralization IC50 [13]: 0.028 µg/mL
- neutralization IC50 [14]: 4.11 µg/mL
- neutralization IC50 [15]: 0.173 µg/mL
- neutralization IC50 [16]: 0.002 µg/mL
- neutralization IC50 [17]: 0.021 µg/mL
- neutralization IC50 [18]: 2.1 µg/mL
- neutralization IC50 [19]: 0.002 µg/mL
- neutralization IC50 [20]: > 50 µg/mL
- neutralization IC50 [21]: 0.036 µg/mL
- neutralization IC50 [22]: 0.728 µg/mL
- neutralization IC50 [23]: < 0.023 µg/mL
- neutralization IC50 [24]: > 50 µg/mL
- neutralization IC50 [25]: 0.113 µg/mL
- neutralization IC50 [26]: 0.019 µg/mL
- neutralization IC50 [27]: 0.001 µg/mL
- neutralization IC50 [28]: 0.017 µg/mL
- neutralization IC50 [29]: 0.001 µg/mL
- neutralization IC50 [30]: 0.006 µg/mL
- neutralization IC50 [31]: 0.008 µg/mL
- neutralization IC50 [32]: 49 µg/mL
- neutralization IC50 [33]: > 50 µg/mL
- neutralization IC50 [34]: < 0.023 µg/mL
- neutralization IC50 [35]: 0.002 µg/mL
- neutralization IC50 [36]: < 0.023 µg/mL
- neutralization IC50 [37]: 0.961 µg/mL
- neutralization IC50 [38]: < 0.023 µg/mL
- neutralization IC50 [39]: 0.023 µg/mL
- neutralization IC50 [40]: < 0.023 µg/mL
- neutralization IC50 [41]: 0.024 µg/mL
- neutralization IC50 [42]: > 50 µg/mL
- neutralization IC50 [43]: 35.3 µg/mL
- neutralization IC50 [44]: 0.03 µg/mL
- neutralization IC50 [45]: < 0.023 µg/mL
- neutralization IC50 [46]: 0.631 µg/mL
- neutralization IC50 [47]: 0.025 µg/mL
- neutralization IC50 [48]: 0.009 µg/mL
- neutralization IC50 [49]: 0.005 µg/mL
- neutralization IC50 [50]: < 0.023 µg/mL
- neutralization IC50 [51]: 0.002 µg/mL
- neutralization IC50 [52]: < 0.023 µg/mL
- neutralization IC50 [53]: 0.393 µg/mL
- neutralization IC50 [54]: > 50 µg/mL
- neutralization IC50 [55]: > 50 µg/mL
- neutralization IC50 [56]: 2.51 µg/mL
- neutralization IC50 [57]: < 0.023 µg/mL
- neutralization IC50 [58]: < 0.023 µg/mL
- neutralization IC50 [59]: > 50 µg/mL
- neutralization IC50 [60]: < 0.023 µg/mL
- neutralization IC50 [61]: > 50 µg/mL
- neutralization IC50 [62]: 49 µg/mL
- neutralization IC50 [63]: 0.037 µg/mL
- neutralization IC50 [64]: 0.767 µg/mL
- neutralization IC50 [65]: < 0.023 µg/mL
- neutralization IC50 [66]: > 50 µg/mL
- neutralization IC50 [67]: 0.002 µg/mL
- neutralization IC50 [68]: > 50 µg/mL
- neutralization IC50 [69]: 1.1 µg/mL
- neutralization IC50 [70]: 12.2 µg/mL
- neutralization IC50 [71]: 4.93 µg/mL
- EC50 (read off the curve) [72]: 1 µg/mL

Substance: monoclonal antibody PG9
- neutralization IC50 [1]: < 0.023 µg/mL
- neutralization IC50 [2]: 0.071 µg/mL
- neutralization IC50 [3]: 0.122 µg/mL
- neutralization IC50 [4]: 0.281 µg/mL
- neutralization IC50 [5]: 0.021 µg/mL
- neutralization IC50 [6]: > 50 µg/mL
- neutralization IC50 [7]: 0.393 µg/mL
- neutralization IC50 [8]: 1.55 µg/mL
- neutralization IC50 [9]: 0.038 µg/mL
- neutralization IC50 [10]: > 50 µg/mL
- neutralization IC50 [11]: 0.106 µg/mL
- neutralization IC50 [12]: 0.001 µg/mL
- neutralization IC50 [13]: 0.045 µg/mL
- neutralization IC50 [14]: 3.01 µg/mL
- neutralization IC50 [15]: 0.079 µg/mL
- neutralization IC50 [16]: 0.002 µg/mL
- neutralization IC50 [17]: 0.037 µg/mL
- neutralization IC50 [18]: 2.18 µg/mL
- neutralization IC50 [19]: 0.007 µg/mL
- neutralization IC50 [20]: > 50 µg/mL
- neutralization IC50 [21]: 1.3 µg/mL
- neutralization IC50 [22]: 0.025 µg/mL
- neutralization IC50 [23]: 0.242 µg/mL
- neutralization IC50 [24]: > 50 µg/mL
- neutralization IC50 [25]: 0.091 µg/mL
- neutralization IC50 [26]: 0.05 µg/mL
- neutralization IC50 [27]: 0.024 µg/mL
- neutralization IC50 [28]: 0.035 µg/mL
- neutralization IC50 [29]: 0.004 µg/mL
- neutralization IC50 [30]: 0.017 µg/mL
- neutralization IC50 [31]: 0.042 µg/mL
- neutralization IC50 [32]: 0.5 µg/mL
- neutralization IC50 [33]: 0.147 µg/mL
- neutralization IC50 [34]: < 0.023 µg/mL
- neutralization IC50 [35]: 0.006 µg/mL
- neutralization IC50 [36]: < 0.023 µg/mL
- neutralization IC50 [37]: 1.99 µg/mL
- neutralization IC50 [38]: < 0.023 µg/mL
- neutralization IC50 [39]: 0.061 µg/mL
- neutralization IC50 [40]: 0.087 µg/mL
- neutralization IC50 [41]: 0.231 µg/mL
- neutralization IC50 [42]: > 50 µg/mL
- neutralization IC50 [43]: 0.033 µg/mL
- neutralization IC50 [44]: 0.262 µg/mL
- neutralization IC50 [45]: 0.088 µg/mL
- neutralization IC50 [46]: 27 µg/mL
- neutralization IC50 [47]: 0.266 µg/mL
- neutralization IC50 [48]: 0.044 µg/mL
- neutralization IC50 [49]: 0.008 µg/mL
- neutralization IC50 [50]: 0.091 µg/mL
- neutralization IC50 [51]: 0.008 µg/mL
- neutralization IC50 [52]: < 0.023 µg/mL
- neutralization IC50 [53]: 1.66 µg/mL
- neutralization IC50 [54]: > 50 µg/mL
- neutralization IC50 [55]: > 50 µg/mL
- neutralization IC50 [56]: 13.5 µg/mL
- neutralization IC50 [57]: 0.303 µg/mL
- neutralization IC50 [58]: < 0.023 µg/mL
- neutralization IC50 [59]: > 50 µg/mL
- neutralization IC50 [60]: < 0.023 µg/mL
- neutralization IC50 [61]: > 50 µg/mL
- neutralization IC50 [62]: 1.16 µg/mL
- neutralization IC50 [63]: 0.162 µg/mL
- neutralization IC50 [64]: 0.635 µg/mL
- neutralization IC50 [65]: 0.091 µg/mL
- neutralization IC50 [66]: > 50 µg/mL
- neutralization IC50 [67]: 0.008 µg/mL
- neutralization IC50 [68]: > 50 µg/mL
- neutralization IC50 [69]: 0.639 µg/mL
- neutralization IC50 [70]: > 50 µg/mL
- neutralization IC50 [71]: 0.106 µg/mL
- EC50 (read off the curve) [72]: 0.1 µg/mL
